Data on 40 sequences can be found in the nanobody polyreactivity screen of Harvey et al. (2022).

The data set can be described thus: yeast display, Sf9 membrane polyspecificity reagent, FACS + sequencing; frameworks hold sequencing errors. In a few lines: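 A synthetic nanobody library was expressed on Saccharomyces cerevisiae BJ5465 by galactose induction for 36–48 hours. The library was stained for 1 hour at 4 °C with 10% biotinylated, detergent-solubilized Sf9 membrane reagent and enriched with streptavidin microbeads before FACS. Low and high (top ~1%) gates were set on anti-HA fluorescence for expression and streptavidin fluorescence for reagent binding, and each polyreactivity label reflects the gate of origin.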
As for “QVQLVESGGGLVQAGGSLRLSCAASGSLFGDYVMGWSRQAPGKERELVAAINRGGSTYYADSVKGRFTISRDNAKNTVYLQMNSLKPEDTAVYYGAAGYPSWYYGYPYDSWGQGTQVTVSS”, the “polyreactivity (PSR sort gate)” value is given as “low polyreactivity”.

On to “QVQLVESGGGLVQAGGSLRLSCAASGSLFKRNAMGWYRQAPGKERELVAAITSSGGRTYYADSVKGRFTISRDNAKNTVYLLMNSLKPEDTAVYYCNKVRAGRDERRAGDYWGQGTQVTVSS”, for which the “polyreactivity (PSR sort gate)” value is “high polyreactivity”.

Consider “QVQLVESGGGLVQAGGSLRLSCAASGSLFKYYAMGWYRQAPGKERELVAAITIGGNTNYADSVKGRFTISRDNAKNTVYLQMNSLKPEDTAVYYCATGGYYSAIVYGGYDYWGQGTQVTVSS”, for which the “polyreactivity (PSR sort gate)” value is reported as “low polyreactivity”.

Regarding “QVQLVESGGGLVQAGGSLRLSCAASGSLFRYYVMGWYRQAPGKERELVAAISSRGGSTYYADSVKGRFTISRDNAKNSVYLLMNSLKPEDTAFYYCAARFGGWDRGLDYWGQGTLVTVSS”, the “polyreactivity (PSR sort gate)” value was “high polyreactivity”.

Turning to “QVQLVESGGGLVQAGGSLRLSCAASGSLFSWYTKGWYRQAPGKERELVAAISRSGGRTYYADSVKGRFTISRDNAKNTVYLQMNSLKPEDTAVYSCAARVYSYYGSRGQRYDYWGQGTQVTVSS”, the “polyreactivity (PSR sort gate)” value is “high polyreactivity”. With “QVQLVESGGGLVQAGGSLRLSCAASGSLFYINAMGWYRQAPGKERELVAAITSDGSTYYADSVKGRFTISRDNAKNTVYLQMNSLKPEDTAVYYCAADLTSDQYLYYWYWFYSWGQGTQVTVSS” the entry was “low polyreactivity”; with “QVQLVESGGGLVQAGGSLRLSCAASGSMFYKNAMVWYRQAPGKEREMVAAINSVGSTDYADSVKGRFTISRDNAKNTVYLQMNSLTPEDTAVYYCAATNLFTIIDYDYWGQGTQVTVSS”, “low polyreactivity”. On to “QVQLVESGGGLVQAGGSLRLSCAASGSMFYYYAMGWYRQPPGKERELVAAISSGGVGSTTYADSVKGRFTISRDNAKNTVYLQMNSLKPEDTAVYYCNADRPGYFYFYFNYWGQGTQVTVSS”, for which the “polyreactivity (PSR sort gate)” value was “high polyreactivity”. For the sequence “QVQLVESGGGLVQAGGSLRLSCAASGSNFAVYAMGWYRQAPGKERELVATIRWNGGSTYYADSVKGRFTISRDNAKNTVYLQMNSLKQEDTAVYYCAKEYSTYVSKKSAYRYYYWGQGTQVTVSS”, the “polyreactivity (PSR sort gate)” value is reported as “high polyreactivity”. The value for “QVQLVESGGGLVQAGGSLRLSCAASGSNFDFYAMGWYRQAPGKERELVAAISSSGTSTYYADSVKGRFTISRDNAKNTVYLQMNSLKPEDTAVYYCAAVYSRSGYTWREYGYWGQGTQVTVSS” was “low polyreactivity”. The value for “QVQLVESGGGLVQAGGSLRLSCAASGSNFDIYGMGWYRQAPGKERELVASISGGAGSTNYADSVKGRFTISRDNAKNTVYLQMNSLKPEDTAVYYCAAEVYVPDSFQHKFDVEYEYWGQGTQVTVSS” was “low polyreactivity”. Consider “QVQLVESGGGLVQAGGSLRLSCAASGSNFDTYAMGRYRQAPGKERELVAAITRRAGSTYYADSVKGRFRISRDNAKNTVYLQMNSLKPEDTSVYYCAADFRYPDIYGGYDYWGQGTQVTVSS”, for which the “polyreactivity (PSR sort gate)” value was “low polyreactivity”. For “QVQLVESGGGLVQAGGSLRLSCAASGSNFENYAMGWYRQAPGKERELVAAISSNGGSTYYADSVKGRFTLSRDKAKNTVYLQKNSLKPEDTAVYYCNKGRYYRQIYDYWGQGTQVTVSS”, the “polyreactivity (PSR sort gate)” value is on record as “high polyreactivity”. With “QVQLVESGGGLVQAGGSLRLSCAASGSNFFSYAMGWYREAPGKERELVAAIDYSGGGTYYADSVKGRFTISRDNAKNTVYLQMNSLKPEDTAVYYCNSDTEVWADTFISYRALNYWGQGTQVTVSS”, the “polyreactivity (PSR sort gate)” value is recorded as “low polyreactivity”.

As for “QVQLVESGGGLVQAGGSLRLSCAASGSNFGKYAMGWYRPAPGKERELVATITRRGGSTYYADSVKGRFTISRDNAKNTVYLQMNSLKPEDSAVYYCAKRSNGYVDYGYWGQGTQVTVSS”, the “polyreactivity (PSR sort gate)” value is “high polyreactivity”. For the sequence “QVQLVESGGGLVQAGGSLRLSCAASGSNFHPNGMGRYRQAPRTERELVAAIRRSGGSTYYADSVKGRFTISRDNAKNTVYLQMISLKAEDTAVYYCAAKHYYYSRYVRYDPPPGYYWGQGTQVTVSS”, the “polyreactivity (PSR sort gate)” value was “high polyreactivity”. On to “QVQLVESGGGLVQAGGSLRLSCAASGSNFKTYVMGWSRQAPGKERELVAAITSSGGRTYYADSVKGRFTISRDNAKNSVYLQMNSLKPEDTAVYYCNTAPRWVGRNDYWGQGTQVTVSS”, for which the “polyreactivity (PSR sort gate)” value is “high polyreactivity”. For “QVQLVESGGGLVQAGGSLRLSCAASGSNFLKNAMGWYRQAPGKERELVAAITSGGSTYYADSVKGRFTISRDNAKNTVYLQMNSLKPEDTAVYYCADETSPSWYTWVTYDYWGQGTQVTVSS”, the “polyreactivity (PSR sort gate)” value is listed as “high polyreactivity”. Regarding “QVQLVESGGGLVQAGGSLRLSCAASGSNFNRYAMGWYRQAPGKERELVAAISRSGGRTYYADSVKGRFTISRDNAKNTVYLQMNSLKPEDTAVYYCAAGGRWFYIDDDWGQGTQVTVSS”, the “polyreactivity (PSR sort gate)” value was “high polyreactivity”.

For “QVQLVESGGGLVQAGGSLRLSCAASGSNFNYYVMGGYRQAPGKERELVAAISRSGTSTYYADSVKGRFTISRDNAKNTVYLQMNRLKPEDSSVYYCAARVSHKYRTYYYWGQGTQVTVSS”, the “polyreactivity (PSR sort gate)” value is recorded as “high polyreactivity”. In the case of “QVQLVESGGGLVQAGGSLRLSCAASGSNFPVYAMGWYRQAPGKEREFVAAISYSGGGTYYADSVKGRFTISRDNAKNTVYLQMNSLKPEDTAVYYCAADVSGWEYAYWGQGTQVTVSS”, the “polyreactivity (PSR sort gate)” value is reported as “low polyreactivity”.

For the sequence “QVQLVESGGGLVQAGGSLRLSCAASGSNFQYYGMGWYRQAPGKERELVASISRSGGSTYYADSVKGRFTISRDNAKNTVYLQMNSLKPEDTAVYYCNAKEAIRRTHLTTTYRDGYWGQGTQVTVSS”, the “polyreactivity (PSR sort gate)” value is “low polyreactivity”. With “QVQLVESGGGLVQAGGSLRLSCAASGSNFSFYAMGWYRQAPGKERELVAAISYSGGSTYYADSVKGRFTISRDNAKNTVYLQINSLKPEDTAVYYCNSDIYRHHGWVPGGYRGQGTQVTVSS”, the “polyreactivity (PSR sort gate)” value is recorded as “low polyreactivity”.

Take “QVQLVESGGGLVQAGGSLRLSCAASGSNFTANAMGLYRQAPGKEREMVADISTGGSTKYADSVKGRFTISRDNAKNTVYLEMNSLKPEDTAVYYCAARSRWARGSAIRGFWGQGTQVTVSS”: the “polyreactivity (PSR sort gate)” value was “high polyreactivity”. Take “QVQLVESGGGLVQAGGSLRLSCAASGSNFVVYAMGWYRQAPGKERELVAAISWGIGSTYYADSVKGRFTISRDNAKNTVYLHMNSLKPQDTAVYYCAADTDIVLYDYWGQGTQVTVSS”: the “polyreactivity (PSR sort gate)” value is given as “low polyreactivity”. Consider “QVQLVESGGGLVQAGGSLRLSCAASGSNFYGYTMGWYRQAPGKERELVAAISWSGGSTYYADSVKGRFTISRDNAKNTVYLQMNSLKPEDTAVYYCAARWGYSRRGYRGYDYWGQGTQVTVSS”, for which the “polyreactivity (PSR sort gate)” value is “high polyreactivity”. Regarding “QVQLVESGGGLVQAGGSLRLSCAASGSNFYPYAMGWYRQAPGKEREFVAAITRSGGSTSYADSVKGRFTISRDNAKNTVYLQMNSLKPVDTAVDYCAAGYWYPDYDGFDYWGQGTQVTGSS”, the “polyreactivity (PSR sort gate)” value is on record as “low polyreactivity”. With “QVQLVESGGGLVQAGGSLRLSCAASGSNIKYYAMGWYRQAPGKERELVAAISWRGGRTYADSVKGRFTISRDNAKNTVYLQMNSLKPEDTAVYYCATAQTSITGRVYYWGQGTQVTVSS”, the “polyreactivity (PSR sort gate)” value is “high polyreactivity”. Regarding “QVQLVESGGGLVQAGGSLRLSCAASGSNITYYAMGWYRQAPGKERELVAAINLSGDITYYADSVKGRFTISRDNAKNTVYLQMNSLKPEDTAVYYCAAESASSRPYFNSIHRRDSWGQGTQVTVSS”, the “polyreactivity (PSR sort gate)” value is reported as “low polyreactivity”.

“QVQLVESGGGLVQAGGSLRLSCAASGSPFKRYAMGWYRQAPGKERELVAAISSRGSSTYYADSVKGRFTISRDNAKNTVYLQMNSLKPEDTAVYYCAADRYTFWTVHSDYWGQGTQVTVSS”: the “polyreactivity (PSR sort gate)” value was “high polyreactivity”. With “QVQLVESGGGLVQAGGSLRLSCAASGSPFTRYTMGWYRHAPGKERELVASITRTGSTNYADSVKGRFTISRDNAKNTLYFQMNSLKPEDTAVYYCAAGRYYSYRFSFGYWGQGTQVTVSS” the entry was “high polyreactivity”; with “QVQLVESGGGLVQAGGSLRLSCAASGSPFVDNAMGWYRQAPGKEMELVAAIRDGSGGSTRYADSVKGRFTISRDNAKNTVYLQMHSLKPEVTAVYYCAADGYITVNYLRYDYWGQGTQVTVSS”, “low polyreactivity”; with “QVQLVESGGGLVQAGGSLRLSCAASGSPYQQYGMGWYRQAPGKERELVAAITFSDGNTYYADSVTGRFTISRDNAKNTVYLQMNSLKPEDTAVYYCNAGYSYGVSYAEGGYWGQGTQVTVSS”, “low polyreactivity”. As to “QVQLVESGGGLVQAGGSLRLSCAASGSSFAGNAMGWYRQAPGKERELVAAIDSSTGSTYYADSVKGRFTISRDNAKNTVYLQMNSLKPEDTAVYYCNKTSFLVKLDYWGQGTQVTLSS”, the “polyreactivity (PSR sort gate)” value is on record as “low polyreactivity”.

For the sequence “QVQLVESGGGLVQAGGSLRLSCAASGSSFGGYAMGWYRQAPGKERELVARITDRGGSTDYADSVKGRFTISRDNAKNTVYLQKNSLKPEDTAGSYCAKRGDRYEKRPRDYWGQGTQVTVSS”, the “polyreactivity (PSR sort gate)” value is “low polyreactivity”. The value for “QVQLVESGGGLVQAGGSLRLSCAASGSSFGTYAMGWYRQAPGKERELVAAISSSVGSTYYADSVKGRFTISRDNATNTVYLQMNSLKPEDTAVYYCAVEQEDFWYPYLYDYWGQGTQVTVSS” was “high polyreactivity”. As to “QVQLVESGGGLVQAGGSLRLSCAASGSSFKRYAMGWYRQAPGKERELVAAINWRGGRTYYADSVKGRFTISRDNAKNTVYLQMNSLKPEDTAVYYCNVVSNSYYYQHYYWGQGTQVTVSS”, the “polyreactivity (PSR sort gate)” value is given as “high polyreactivity”. Consider “QVQLVESGGGLVQAGGSLRLSCAASGSSFTPNALGWYRQAPGKERELVAAISSSSDRTYYADSVKGRFTISRDNAKNTVYLQMNSLKPEDTAVYYCNARTEYASSRYYYWGQGTQVTVSS”, for which the “polyreactivity (PSR sort gate)” value was “high polyreactivity”. As to “QVQLVESGGGLVQAGGSLRLSCAASGSSFVSYTMGWYRQAPGKERELVAAISYNGARTYYADSVKGRFTISRDNAKNTVYLQMNSLKPEDTAVYYCARRYYSQYDYWGQGTQVTVSS”, the “polyreactivity (PSR sort gate)” value is on record as “high polyreactivity”. For “QVQLVESGGGLVQAGGSLRLSCAASGSSFYYYTMGWYRQAPGKEMELVAAITYSGGSTRYADSVKGRFTISRDNAKNTVYLQMNSLKPEDTAVYYCAAELTEWTNGFDYWGQGTQVTVSS”, the “polyreactivity (PSR sort gate)” value was “high polyreactivity”.
